# Measurements: patent US20250340655A1, “EPHA2-TARGETING ANTIBODIES AND THEIR APPLICATIONS IN CANCER TREATMENT” (TAIPEI MEDICAL UNIVERSITY, priority 2022, published 2025)
# B1: Humanized scFv hSD5 (scFv)
# scFv: LTQPPSVSVSPGQTVRITCSGSSGSYGWYQQKSPGQAPVTLIYDNDKRPSGIPERFSGSSSGSTSTLTISGVQAEDEADYYCGSADSSTYVGMFGGGTKLTVLGQSSRSSQVQLVESGGGLVQPGGSLRLSCAASGFTFSDYGMGWVRQAPGKGLEWVAGISAAGSFTPYGAAVKGRFTISRDNSKNTVYLQMNSLRAEDTAVYYCARIPSGYRAGEIYTWGQGTLVTVSS
# notes: also called hSD5 scFv; Humanized scFv hSDS
# B2: IgG hSD5: complete humanized anti-EphA2 IgG (IgG1) of hSD5 (antibody, V domains shown)
# VH: QVQLVESGGGLVQPGGSLRLSCAASGFTFSDYGMGWVRQAPGKGLEWVAGISAAGSFTPYGAAVKGRFTISRDNSKNTVYLQMNSLRAEDTAVYYCARIPSGYRAGEIYTWGQGTLVTVSS
# VL: LTQPPSVSVSPGQTVRITCSGSSGSYGWYQQKSPGQAPVTLIYDNDKRPSGIPERFSGSSSGSTSTLTISGVQAEDEADYYCGSADSSTYVGMFGGGTKLTVL
# How the values were obtained:
# [1] = target: T1, EphA6 overexpressed on 293T cells (UniProt Q9UF33 23-1036, limits assumed); test: flow cytometry on 293T cells overexpressing EphA1-A8
# T1 construct: whole, on cells
# T1 sequence (looked up): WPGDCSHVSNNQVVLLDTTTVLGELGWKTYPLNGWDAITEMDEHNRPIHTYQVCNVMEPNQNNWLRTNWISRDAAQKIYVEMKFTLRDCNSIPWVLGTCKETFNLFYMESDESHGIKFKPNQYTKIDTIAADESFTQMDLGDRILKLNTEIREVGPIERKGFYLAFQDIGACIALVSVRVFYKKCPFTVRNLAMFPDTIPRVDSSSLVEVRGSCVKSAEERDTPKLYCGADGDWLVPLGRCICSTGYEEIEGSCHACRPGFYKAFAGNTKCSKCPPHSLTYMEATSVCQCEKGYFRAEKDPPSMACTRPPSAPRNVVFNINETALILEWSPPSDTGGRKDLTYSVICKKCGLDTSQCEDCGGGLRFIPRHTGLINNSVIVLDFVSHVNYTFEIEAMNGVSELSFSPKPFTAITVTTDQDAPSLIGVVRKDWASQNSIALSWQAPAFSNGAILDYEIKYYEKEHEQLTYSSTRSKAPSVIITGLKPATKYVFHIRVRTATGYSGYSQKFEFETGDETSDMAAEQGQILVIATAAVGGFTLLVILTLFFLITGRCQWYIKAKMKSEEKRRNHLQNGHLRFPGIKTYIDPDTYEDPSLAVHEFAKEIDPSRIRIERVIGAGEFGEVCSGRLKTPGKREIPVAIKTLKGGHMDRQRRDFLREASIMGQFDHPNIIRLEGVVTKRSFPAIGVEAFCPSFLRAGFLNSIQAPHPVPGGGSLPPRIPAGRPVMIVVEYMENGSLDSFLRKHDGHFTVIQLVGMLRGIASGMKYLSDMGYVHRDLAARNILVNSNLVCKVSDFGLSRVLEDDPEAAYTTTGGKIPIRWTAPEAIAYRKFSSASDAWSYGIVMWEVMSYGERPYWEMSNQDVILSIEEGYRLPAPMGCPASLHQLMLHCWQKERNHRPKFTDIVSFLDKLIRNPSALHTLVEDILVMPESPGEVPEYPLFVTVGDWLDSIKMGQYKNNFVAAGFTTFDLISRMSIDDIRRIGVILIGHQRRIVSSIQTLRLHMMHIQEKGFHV
# Description: To detect the binding specificity of scFv, 293T cells were transformed with EphA1-A8 plasmids individually for overexpression of different EphA molecules. The cell line was freshly prepared and washed with FACS buffer (2% FBS in PBS). The cells were seeded at 1×10⁵ cells/well into a 96-well Ubottom plate and incubated with scFv for 1 h at 4° C. After the plate was washed with FACS buffer, the anti-hemagglutinin (HA) antibody was added for scFv binding detection (scFv was fused with a HA tag) and subsequently developed using an FITC-conjugated secondary antibody. Finally, the cell binding signal was analyzed using a FACS can flow cytometer.
# [2] = tested on: EphA2pep_P1, EphA2pep_P2, EphA2pep_PIP2 synthetic peptides; test: Peptide ELISA for epitope definition; format: binding
# From the text: We used peptide enzyme-linked immunosorbent assay (ELISA) to identify the designed epitope on EphA2; the BSA-conjugated peptides EphA2pep_P1 (BSA-[…]) and EphA2pep_P2 (BSA-[…]) each represent the two segments of the linear epitope designed on EphA2. EphA2pep_PIP2 (BSA-[…]) represents the two linear epitope sequences connected by a linker. These peptides were synthesized and conjugated with BSA (Kelowna International Scientific). The BSA-conjugated peptides were individually coated on a 96-well microplate at 4° C. overnight. After the wells were blocked with 3% BSA, IgG hSD5 was added and incubated. Next, an HRP-conjugated anti-HA tag antibody (Cell Signaling Technology) was used to detect bound scFv. Finally, the TMB substrate was added for development, and the reaction was stopped by adding 1 N HCl. Absorbance was measured by determining the OD at 450 nm. A dot blot assay was used to detect the binding of IgG hSD5 to the synthesized peptides; […] of individual peptides (1 mg/mL; in triplicate) were dropped on the NC membrane and maintained at RT for complete absorption. Blocking with 3% BSA was performed at RT for 1 h. Then, IgG hSD5 (10 μg/mL) was added, and the reaction was allowed to proceed for 1 h at RT. After the membrane was washed, the HRP-conjugated anti-HA tag antibody was added, and the reaction was allowed to proceed for 1 h at RT. Lastly, DAB was used to initiate the coloration reaction.
# To determine whether the antibody hSD5 can recognize two antigen fragments simultaneously, peptide synthesis of the two antigen fragments was performed to test the binding reaction of antibody IgG hSD5. The ELISA was used to test the binding reactivity of the antibody hSD5 to synthetic peptides. The two short peptides located on the designed activation site of EphA2 are EphA2pep_P1 and EphA2pep_P2, respectively. The long peptide formed by linking the two short peptides is EphA2pep_PIP2. NCIpep and NC2pep are two irrelevant peptides as the negative control. EphA2 ECD is a recombinant EphA2 extracellular domain protein.
# [3] = tested on: hTERT HPNE, AsPC-1, BxPc-3, and Mia PaCa-2; test: Growth inhibitory response of pancreatic cell lines to serially diluted hSD5-ADC; format: cell-based, human; conditions: serial dilution (FIGS. 11A-11D)
Molecule,binding result [1],binding to long peptide EphA2pep_PIP2 ([2]; peptide ELISA (FIG. 9A)),binding to short peptides EphA2pep_P1 and EphA2pep_P2 ([2]; peptide ELISA (FIG. 9A)),interaction with EphA2pep_P1 compared with EphA2pep_P2 ([2]; peptide ELISA (FIG. 9A)),"cross-binding to two irrelevant peptides ([2]; peptide ELISA, NC peptides (FIG. 9A))",growth inhibitory response of pancreatic cell lines [3]
B1,no binding,–,–,–,–,–
B2,–,exhibited a binding response,individually recognized,stronger,did not exhibit a cross-binding reaction,does not provide ideal inhibition effect
